Data as given in patent publication US20110191903A1, “ENGINEERING PLANT RESISTANCE TO DISEASES CAUSED BY PATHOGENS” (Pioneer Hi-Bred International, Inc., priority 2009, published 2011).
Positions count from the first letter of the chain named. Numbers in names are those of the source.

Key:
Assay type in all cases: biochemical, Ceriporiopsis subvermispora
[1] = substrate: O=C(O)C(=O)O; test: Oxalate oxidase kinetics, coupled horse radish peroxidase assay, FG10
Excerpt: (§1) The E. coli expression system was based on the published protocol of Escutia et al. Escutia et al., Cloning and sequencing of two Ceriporiopsis subvermispora bicupin oxalate oxidase allelic isoforms: implications for the reaction specificity of oxalate oxidases and decarboxylases. (2005). The coding sequence for the mature OXOX enzyme was inserted in E. coli expression vector pET32 (Invitrogen) to include a 6× histidine tag at the C-terminus. The resulting expression plasmid was transformed into E. coli strain BL21Star pLysS (Invitrogen).
(§2) E. coli cultures were grown at 37° C. At optical density 0.4, arabinose was added to a concentration or 0.4%. After another hour of growth at 37° C., MnCl2 was added to 5 mM and IPTG to 1 mM. Cultures were then grown at 25° C. for 16 hours. Cells were harvested by centrifugation at 4000 rpm for 10 min. The supernatant was discarded and cell pellets were kept at −80° C. for at least one hour. Pellets were resuspended in total 40 ml of lysis buffer with 50 mM phosphate buffer pH7, 2 mg/ml protease inhibitor (sigma P-8465), 100 mM KCL, 1/1000 lysozyme, 1/2000 endonuclease, and incubated at 37° C. with shaking for one hour, followed by sonication. Cellular debris was removed by centrifugation and the clarified supernatant was poured into a new tube. Nickel resin (Qiagen) was added. After a short period of incubation, the slurry was poured onto a column and washed with buffer. Purified OXOX protein was eluted from the resin in 50 mM succinate pH 5, 100 mM KCl. The E. coli expression procedure was scalable allowing large scale protein production for kinetic analysis as well as small scale production for high throughput screening of libraries.
(§3) Oxalate oxidase enzymatic activity was determined in a coupled reaction. Oxalate oxidase converts oxalic acid to carbon dioxide and hydrogen peroxide. In the presence of horse radish peroxidase, hydrogen peroxide reacts with 3-methyl-2-benzothiazolinone hydrazone (MBTH) and N,N-dimethylaniline (DMA) to form indamine dye, which can be detected spectrophotmetrically or colorimetrically as described by Laker, M. F., Hoffman, A. F., and Meeuse, J. D. (1980) Clinical Chemistry 26, 827-830. The coupled reaction was used for characterization of oxalate oxidase kinetic properties as well as in a screening procedure to identify oxalate oxidase variants with improved enzymatic properties.
(§4) DNA shuffling was performed as described elsewhere herein. A polymerase chain reaction product corresponding to the OXOX-C coding sequence was fragmented by limited nuclease treatment. Synthetic oligonucleotides encoding sequence diversity from oxalate decarboxylase sequences found in public databases were added. A polymerase chain reaction procedure was performed on the mixture to yield a library of full length OXOX-C coding sequences with additional diversity incorporated. The resulting library was inserted in expression vector pET32, E. coli cells were transformed and protein was expressed, as described in Example 2. A tiered screening strategy was devised based on the OXOX protein expression and enzymatic activity determination procedures described in Examples 2 and 3, respectively. A high throughput screening process based on colorimetric determination of OXOX activity was utilized to identify individual E. coli strains harboring active OXOX variants. These OXOX-active strains were reassayed using quantitative spectrophotometric determination of OXOX activity. […] Three rounds of this iterative screening and selection procedure were completed, and OXOX variants with up to 8-fold improved activity were identified
(§5) More modest improvements in Km and Kcat were observed under lower pH conditions. Coupled reaction was preformed as described in Example 3. Enzyme kinetic parameters were determined by standard methods as described in Segel (1976) Biochemical calculations, 2nd Edition. John Wiley & Sons, London, New York, Sydney, Toronto.

[2] = substrate: O=C(O)C(=O)O; test: Oxalate oxidase kinetics, coupled horse radish peroxidase assay, ALT6 (3-21)
Excerpt: as §1, §2, §3, §4, §5

[3] = substrate: O=C(O)C(=O)O; test: Oxalate oxidase kinetics, coupled horse radish peroxidase assay, ALT7 (3-25)
Excerpt: as §1, §2, §3, §4, §5

[4] = substrate: O=C(O)C(=O)O; test: Oxalate oxidase kinetics, coupled horse radish peroxidase assay, ALT1 (WT-Q7)
Excerpt: as §1, §2, §3
(§6) Three potential glycosylations sites with the consensus amino acid sequence N—X—(S/T) were identified in OXOX-C at amino acid positions 60, 384 and 430 in SEQ ID NO:27. Site-directed mutagenesis was used to alter these sites (Quickchange, Stratagene). Every possible amino acid substitution was generated at the third amino acid position of each potential glyosylation site. The resulting variants were screened for activity using the enzymatic assay described in Example 3. […] These variants correspond to sequences OXOX-C-MOD1-ALT1 (SEQ ID NO:23) and OXOX-C-MOD1-ALT2 (SEQ ID NO:24).
as §5

[5] = substrate: O=C(O)C(=O)O; test: Oxalate oxidase kinetics, coupled horse radish peroxidase assay, ALT5 (2-6)
Excerpt: as §1, §2, §3, §4, §5

[6] = substrate: O=C(O)C(=O)O; test: Oxalate oxidase kinetics, coupled horse radish peroxidase assay, ALT3 (1-8)
Excerpt: as §1, §2, §3, §4, §5

[7] = substrate: O=C(O)C(=O)O; test: Oxalate oxidase kinetics, coupled horse radish peroxidase assay, ALT4 (1-23)
Excerpt: as §1, §2, §3, §4, §5

[8] = substrate: O=C(O)C(=O)O; test: Oxalate oxidase kinetics, coupled horse radish peroxidase assay, ALT2 (glyc-)
Excerpt: as §1, §2, §3, §6, §5

B1: Ceriporiopsis subvermispora oxalate oxidase OXOX-C variant FG10 (3-FG10), D53N/I60E/E65Q/K72E/S115T/Q171E/R174K/M192V/I278V/Y282F/Y359F/V399I/G436A plus S437, … (protein)
chain: RPTENGPQIVIANNAGTYLPVLRGSGTKSSSAADATQTVPFASDDPNPRLWNIDTKNLEKVTPQRGQLGAEILGPDNLPIDLQNADTLAPPTTDSGSIPNPKWPFALSHNTLYTGGWVRIQNDEVMPIAKAMAGVNMRLEAGAIRELHWHNTPEWAYILKGTTQITAVDENGKNYLANVGPGDLWYFPEGVPHSLQGTDANNEGSEFLLIFPDGTFDSSNQFMITDWLAHTPKDVIAKNFGVDISEFDRLPSHDLYIFPGVAPPLDAKAPEDPQGTVPLPFSFEFSKVKPTQYAGGTVKIADTRTFPIAKTISVAEVTVEPGAMRELHWHPTEDEWTFFIEGQARVTIFAGQSNAQTFDYQGGDIAYIPTAWGHYVENSGNTQLRFLEIFNSPLFEDISLAQWIANTPPAIVKATLQLSDEVINTLNKQKAFVVASD
notes: C-terminal 6xHis, pET32, E. coli, nickel purified
B1 was tested, and the Km ([1]; other: pH 3.8, pH 3.8) was 400 µM, the kcat ([1]; other: pH 3.8, pH 3.8) was 8.01 s⁻¹ and the Km ([1]; other: pH 4.8, pH 4.8) was 1830 µM. The kcat ([1]; other: pH 4.8, pH 4.8) was 6.00 s⁻¹, the Km ([1]; other: pH 5.8, pH 5.8) was 5900 µM and the kcat ([1]; other: pH 5.8, pH 5.8) was 2.65 s⁻¹.

B2: Ceriporiopsis subvermispora oxalate oxidase OXOX-C variant ALT6 (3-21), L23P/I60E/T63Q/I99V/L177M/L196I/F259Y/I278V/F339Y/F387Y/F396Y relative to OXOX-C-ALT1 … (protein)
chain: RPTENGPQIVIANNAGTYLPVPRGSGTKSSSAADATQTVPFASDDPNPRLWDIDTKNLEKVQPERGQLGAKILGPDNLPIDLQNADTLAPPTTDSGSVPNPKWPFALSHNTLYSGGWVRIQNDEVMPIAKAMAGVNMRLEAGAIRELHWHNTPEWAYILKGTTQITAVDQNGRNYMANVGPGDLWYFPEGMPHSIQGTDANNEGSEFLLIFPDGTFDSSNQFMITDWLAHTPKDVIAKNFGVDISEFDRLPSHDLYIYPGVAPPLDAKAPEDPQGTVPLPYSFEFSKVKPTQYAGGTVKIADTRTFPIAKTISVAEVTVEPGAMRELHWHPTEDEWTYFIEGQARVTIFAGQSNAQTYDYQGGDIAYIPTAWGHYVENSGNTQLRYLEIFNSPLYEDVSLAQWIANTPPAIVKATLQLSDEVINTLNKQKAFVVG
B2 was tested, and the Km ([2]; other: pH 3.8, pH 3.8) was 120 µM, the kcat ([2]; other: pH 3.8, pH 3.8) was 2.79 s⁻¹ and the Km ([2]; other: pH 4.8, pH 4.8) was 550 µM. For the same protein, the kcat ([2]; other: pH 4.8, pH 4.8) was 2.61 s⁻¹, the Km ([2]; other: pH 5.8, pH 5.8) was 1460 µM and the kcat ([2]; other: pH 5.8, pH 5.8) was 1.72 s⁻¹.

B3: Ceriporiopsis subvermispora oxalate oxidase OXOX-C variant ALT7 (3-25), L23P/I54M/I60E/I99V/W118Y/P154A/I159V/L177M/D218N/F259Y/I278V/F339Y/Y359F/G363A/F396Y … (protein)
chain: B2 chain with I53M, Q62T, W117Y, P153A, I158V, I195L, D217N, Y358F, G362A, Y386F
Work on B3 yielded a Km ([3]; other: pH 3.8, pH 3.8) of 450 µM, a kcat ([3]; other: pH 3.8, pH 3.8) of 12.01 s⁻¹ and a Km ([3]; other: pH 4.8, pH 4.8) of 2170 µM. For the same protein, the kcat ([3]; other: pH 4.8, pH 4.8) was 8.28 s⁻¹, the Km ([3]; other: pH 5.8, pH 5.8) was 7840 µM and the kcat ([3]; other: pH 5.8, pH 5.8) was 5.85 s⁻¹.

B4: Ceriporiopsis subvermispora oxalate oxidase OXOX-C variant ALT1 (WT-Q7), glycosylation minus, T60I/T384Q/S430Q relative to SEQ ID NO: 37, SEQ ID NO: 23 … (protein)
chain: RPTENGPQIVIANNAGTYLPVLRGSGTKSSSAADATQTVPFASDDPNPRLWDIDTKNLIKVTPERGQLGAKILGPDNLPIDLQNADTLAPPTTDSGSIPNPKWPFALSHNTLYSGGWVRIQNDEVMPIAKAMAGVNMRLEAGAIRELHWHNTPEWAYILKGTTQITAVDQNGRNYLANVGPGDLWYFPEGMPHSLQGTDANNEGSEFLLIFPDGTFDSSNQFMITDWLAHTPKDVIAKNFGVDISEFDRLPSHDLYIFPGVAPPLDAKAPEDPQGTIPLPYSFEFSKVKPTQYAGGTVKIADTRTFPIAKTISVAEVTVEPGAMRELHWHPTEDEWTFFIEGQARVTIFAGQSNAQTYDYQGGDIAYIPTAWGHYVENSGNTQLRFLEIFNSPLFEDVSLAQWIANTPPAIVKATLQLSDEVINTLNKQKAFVVG
notes: glycosylation sites removed
B4 showed a Km ([4]; other: pH 3.8, pH 3.8) of 330 µM, a kcat ([4]; other: pH 3.8, pH 3.8) of 5.00 s⁻¹ and a Km ([4]; other: pH 4.8, pH 4.8) of 1210 µM. It also gave a kcat ([4]; other: pH 4.8, pH 4.8) of 2.70 s⁻¹, a Km ([4]; other: pH 5.8, pH 5.8) of 6010 µM and a kcat ([4]; other: pH 5.8, pH 5.8) of 0.85 s⁻¹.

B5: Ceriporiopsis subvermispora oxalate oxidase OXOX-C variant ALT5 (2-6), I54M/I60E/I99V/W118Y/F259Y/I278V/F339Y/Y359F/F396Y relative to OXOX-C-ALT1 (SEQ ID NO: … (protein)
chain: B2 chain with P22L, I53M, Q62T, W117Y, M176L, I195L, Y358F, Y386F
B5 was tested, and the Km ([5]; other: pH 3.8, pH 3.8) was 460 µM, the kcat ([5]; other: pH 3.8, pH 3.8) was 10.01 s⁻¹ and the Km ([5]; other: pH 4.8, pH 4.8) was 2320 µM. The kcat ([5]; other: pH 4.8, pH 4.8) was 7.06 s⁻¹, the Km ([5]; other: pH 5.8, pH 5.8) was 8910 µM and the kcat ([5]; other: pH 5.8, pH 5.8) was 2.44 s⁻¹.

B6: Ceriporiopsis subvermispora oxalate oxidase OXOX-C variant ALT3 (1-8), I54M/I99V/W118Y/F259Y/I278V/F339Y/F396Y relative to OXOX-C-ALT1 (SEQ ID NO: 35), SEQ ID … (protein)
chain: B4 chain with I53M, I98V, W117Y, F258Y, I277V, F338Y, F395Y
Work on B6 yielded a Km ([6]; other: pH 3.8, pH 3.8) of 310 µM, a kcat ([6]; other: pH 3.8, pH 3.8) of 4.69 s⁻¹ and a Km ([6]; other: pH 4.8, pH 4.8) of 1700 µM. For the same protein, the kcat ([6]; other: pH 4.8, pH 4.8) was 3.21 s⁻¹, the Km ([6]; other: pH 5.8, pH 5.8) was 8380 µM and the kcat ([6]; other: pH 5.8, pH 5.8) was 1.36 s⁻¹.

B7: Ceriporiopsis subvermispora oxalate oxidase OXOX-C variant ALT4 (1-23), W118Y/I166V/F259Y/I278V/Y282F/F339Y/F396Y relative to OXOX-C-ALT1 (SEQ ID NO: 35), SEQ … (protein)
chain: B4 chain with W117Y, I165V, F258Y, I277V, Y281F, F338Y, F395Y
In the case of B7, the Km ([7]; other: pH 3.8, pH 3.8) is reported as 350 µM, the kcat ([7]; other: pH 3.8, pH 3.8) is reported as 4.08 s⁻¹ and the Km ([7]; other: pH 4.8, pH 4.8) is reported as 1320 µM. For the same protein, the kcat ([7]; other: pH 4.8, pH 4.8) was 2.70 s⁻¹, the Km ([7]; other: pH 5.8, pH 5.8) was 5510 µM and the kcat ([7]; other: pH 5.8, pH 5.8) was 0.85 s⁻¹.

B8: Ceriporiopsis subvermispora oxalate oxidase OXOX-C variant ALT2 (glyc-), glycosylation minus, T60R/T384V/S430D relative to SEQ ID NO: 37, SEQ ID NO: 24 … (protein)
chain: B4 chain with I59R, Q383V, Q429D
notes: glycosylation sites removed
B8 showed a Km ([8]; other: pH 3.8, pH 3.8) of 280 µM, a kcat ([8]; other: pH 3.8, pH 3.8) of 5.60 s⁻¹ and a Km ([8]; other: pH 4.8, pH 4.8) of 1240 µM. The kcat ([8]; other: pH 4.8, pH 4.8) was 2.99 s⁻¹, the Km ([8]; other: pH 5.8, pH 5.8) was 5900 µM and the kcat ([8]; other: pH 5.8, pH 5.8) was 0.91 s⁻¹.
